Test results reported in the RNAGym collection of RNA variant scans (doi:10.7554/elife.90254).

B1: LINE1-full (parent)
chain: UACGUAGGUGGUUUUCCCCUGAUAGUGCUAAGGGGGCCUGGAAGUUUGGACUGGGCAGAGCUCAACACAGCGUGGCAAAGUGGCUGUGGCUAGACUGCCUCUCUGGAUUCCUCGUCACUCAGCAGGGCAUCUCUGAGAGAAAUGCC

Variants of: B1
Experiment: self-cleavage, relative activity (ratio to wild type); higher = more cleavage; in vitro, sequencing; the parent is a self-cleaving ribozyme

Point of comparison: UACGUUGGUGGUUUUCCCCUGAUAGUGCUAAGGGGGCCUGGAAGUUUGGACAGGGCAGAGCUCAACACAGCGUGGCAAAGUGGCUGUGGCUAGACUGCCUCUCUGGAUUCCUCGUCACUCAGCAGGGCAUCUCUGAGAGAAAUGCC [A6U U52A], self-cleavage 1. Against it:
- UACGUUGGUGGUUUUCCCCUGAUAGUGCUAAGGGGGCCUGGAAGUUUGGACUGGGCAGAGCUCAACACAGCGUGGCAAAGUGGCUGUGGCUAGACCGCCUCUCUGGAUUCCUCGUCACUCAGCAGGGCAUCUCUGAGAGAAAUGCC [A6U U96C] — lower, 0.09
- UACGUAAGUGGUUCUCCCCUGAUAGUGCUAAGGGGGCCUGGAAGUUUGGACUGGGCAGAGCUCAACACAGCGUGGCAAAGUGGCUGUGGCUAGACUGCCUCUCUGGAUUCCUCGUCACUCAGCAGGGCAUCUCUGAGAGAAAUGCC [G7A U14C] — lower, 0.88
- UACGUAAGUGGUUUUCCCCUGAUAGUGCUAAGGGGGCCUGGAAGUUUGGACUGGGCAGAGCUCAACACAGCGUGGCAAAGUGGCUGUGGCUAGUCUGCCUCUCUGGAUUCCUCGUCACUCAGCAGGGCAUCUCUGAGAGAAAUGCC [G7A A94U] — lower, 0
- UACGUAAGUGGUUUUCCCCUGAUAGUGCUAAGGGGGCCUGGAAGUUUGGACUGGGCAGAGCUCAACACAGCGUGGCAAAGUGGCUGUGGCUAGGCUGCCUCUCUGGAUUCCUCGUCACUCAGCAGGGCAUCUCUGAGAGAAAUGCC [G7A A94G] — lower, 0.14
- UACGUUGGUGGUUUUCCCCUGAUAGUGCUAAGGGGGCCUGGAAGUUUGGACUGGGCAGAGCUCAACACAGCGUGGCAAAGUGGCUGUGGCUAGACUGCCUCUCAGGAUUCCUCGUCACUCAGCAGGGCAUCUCUGAGAGAAAUGCC [A6U U104A] — higher, 1.16
- UACGUUGGUGGUUUUCCCCUGAUAGUGCUAAGGGGGCCUGGAAGUUUGGACUGGGCAGAGCUCAACACAGCGUGGCAAAGUGGCUGUGGCUAGACUGCCUCUCGGGAUUCCUCGUCACUCAGCAGGGCAUCUCUGAGAGAAAUGCC [A6U U104G] — lower, 0.48
- UACGUAAGUGGUUUUCCCCUGAUAGUGCUAAGGGGGCCUGGAAGUUUGGACUGGGCAGAGCUCAACACAGCGUGGCAAAGUGGCUGAGGCUAGACUGCCUCUCUGGAUUCCUCGUCACUCAGCAGGGCAUCUCUGAGAGAAAUGCC [G7A U87A] — lower, 0.04
- UACGUAAGUGGUUUUCCCCUGAUAGUGCUAAGGGGGCCUGGAAGUUUGGACUGGGCAGAGCUCAACACAGCGUGGCAAAGUGGCUGCGGCUAGACUGCCUCUCUGGAUUCCUCGUCACUCAGCAGGGCAUCUCUGAGAGAAAUGCC [G7A U87C] — lower, 0.07
- UACGUUGGUGGUUUUCCCCUGAUAGUGCUAAGGGGGCCUGGAAGUUUGGACUGGGCAGAGCUCAACACAGCGUGGCAAAGUGGCUGUGGCUAGACUGCCCCUCUGGAUUCCUCGUCACUCAGCAGGGCAUCUCUGAGAGAAAUGCC [A6U U100C] — lower, 0.76
- UACGUUGGUGGUUUUCCCCUGAUAGUGCUAAGGGGGCCUGGAAGUUUGGACUGGGCAGAGCUCAACACAGCGUGGCAAAGUGGCUGUGGCUAGACUGCCACUCUGGAUUCCUCGUCACUCAGCAGGGCAUCUCUGAGAGAAAUGCC [A6U U100A] — lower, 0.52
- UACGUAAGUGGUUUUCCCCUGAUAGUGCUAAGGGGGCCCGGAAGUUUGGACUGGGCAGAGCUCAACACAGCGUGGCAAAGUGGCUGUGGCUAGACUGCCUCUCUGGAUUCCUCGUCACUCAGCAGGGCAUCUCUGAGAGAAAUGCC [G7A U39C] — lower, 0.83
- UACGUAAGUGGUUUUCCCCUGAUAGUGCUAAGGGGGCCUGGAAGUUUGGACUGGGCAGAGCUCAACACAGCGUGGCAGAGUGGCUGUGGCUAGACUGCCUCUCUGGAUUCCUCGUCACUCAGCAGGGCAUCUCUGAGAGAAAUGCC [G7A A78G] — higher, 1.12
- UACGUAAGUGGUUUUCCCCAGAUAGUGCUAAGGGGGCCUGGAAGUUUGGACUGGGCAGAGCUCAACACAGCGUGGCAAAGUGGCUGUGGCUAGACUGCCUCUCUGGAUUCCUCGUCACUCAGCAGGGCAUCUCUGAGAGAAAUGCC [G7A U20A] — lower, 0.96
- UACGUAAGUGGUUUUCCCCUGGUAGUGCUAAGGGGGCCUGGAAGUUUGGACUGGGCAGAGCUCAACACAGCGUGGCAAAGUGGCUGUGGCUAGACUGCCUCUCUGGAUUCCUCGUCACUCAGCAGGGCAUCUCUGAGAGAAAUGCC [G7A A22G] — higher, 1.36
- UACGUAAGUGGUUUUCCCCUGUUAGUGCUAAGGGGGCCUGGAAGUUUGGACUGGGCAGAGCUCAACACAGCGUGGCAAAGUGGCUGUGGCUAGACUGCCUCUCUGGAUUCCUCGUCACUCAGCAGGGCAUCUCUGAGAGAAAUGCC [G7A A22U] — lower, 0.73
- UACGUAAGUGGUUUUCCCCUGAUAGUGCUAAGGGGGCCUGGAAGUUUGGACUGGGCAGAGCUCAACACAGCGUGGCAAAGUGGCUGUGGCUAGACUGCCUCUCUGGAUUCCUCGUCACUCAGCAGGACAUCUCUGAGAGAAAUGCC [G7A G127A] — higher, 1.3
- UACGUUGGUGGUUUUCCCCUGAUAGUGCUAAGGGGGCCUGGAAGUUUGGACUGGGCAGAGCUCAACACAGCGAGGCAAAGUGGCUGUGGCUAGACUGCCUCUCUGGAUUCCUCGUCACUCAGCAGGGCAUCUCUGAGAGAAAUGCC [A6U U73A] — higher, 1.54
- UACGUAAGUGGUUUUCCCCUGAUAGUGCUAAGGGGGCCUGGAAGUAUGGACUGGGCAGAGCUCAACACAGCGUGGCAAAGUGGCUGUGGCUAGACUGCCUCUCUGGAUUCCUCGUCACUCAGCAGGGCAUCUCUGAGAGAAAUGCC [G7A U46A] — higher, 1.23
